Where no end group is shown, it is not given here.
What was measured:
[1] = biological target: T1, human CRF receptor type 1 (human, UniProt P34998 24-415); experiment: cell-based or functional assay
T1 sequence (looked up): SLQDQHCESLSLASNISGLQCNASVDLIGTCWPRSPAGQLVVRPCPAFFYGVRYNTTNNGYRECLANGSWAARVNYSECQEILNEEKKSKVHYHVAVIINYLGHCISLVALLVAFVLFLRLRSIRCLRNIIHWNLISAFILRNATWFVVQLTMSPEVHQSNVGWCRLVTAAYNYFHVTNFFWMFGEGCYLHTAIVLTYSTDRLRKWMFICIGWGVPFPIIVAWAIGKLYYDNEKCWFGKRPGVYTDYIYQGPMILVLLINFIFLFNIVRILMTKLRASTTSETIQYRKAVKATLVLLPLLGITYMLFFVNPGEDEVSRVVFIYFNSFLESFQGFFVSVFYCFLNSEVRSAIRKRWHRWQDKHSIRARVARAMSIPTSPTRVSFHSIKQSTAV

[2] = biological target: T2, endogenous CRF-R1 of primary rat anterior pituitary cells (rat, UniProt P35353 24-415); experiment: cell-based or functional assay
T2 sequence (looked up): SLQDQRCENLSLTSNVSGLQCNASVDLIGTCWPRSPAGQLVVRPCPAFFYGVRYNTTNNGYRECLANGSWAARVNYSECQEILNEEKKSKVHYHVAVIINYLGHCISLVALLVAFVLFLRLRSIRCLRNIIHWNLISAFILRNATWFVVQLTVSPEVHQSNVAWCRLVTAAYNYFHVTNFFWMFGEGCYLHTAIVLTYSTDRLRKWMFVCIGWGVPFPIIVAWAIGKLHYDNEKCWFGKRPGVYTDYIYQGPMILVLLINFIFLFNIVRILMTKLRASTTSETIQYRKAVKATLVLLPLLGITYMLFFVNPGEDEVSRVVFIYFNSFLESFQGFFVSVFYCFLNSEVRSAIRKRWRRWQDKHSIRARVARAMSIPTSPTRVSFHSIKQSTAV

IVLSLDVPIGLLQILLEQARARAAREQATTNARILARV (peptide, UniProt Q96RP3 72-109, looked up) [Urocortin II (human)] was tested, and the “cAMP in CHO cells stably expressing hCRF-R1 (EC50, nM)” value (shortened to “cAMP … (EC50, nM)”) [1] was greater than 100 nM.

For FTLSLDVPTNIMNLLFNIAKAKNLRAQAAANAHLMAQI-NH2 [Urocortin III (human)], the “cAMP … (EC50, nM)” value [1] was greater than 100 nM.

For FTLSLDVPTNIMNILFNIDKAKNLRAKAAANAQLMAQI-NH2 [Urocortin III (mouse)], the “cAMP … (EC50, nM)” value [1] was greater than 100 nM.

With VILSLDVPIGLLRILLEQARYKAARNQAATNAQILAHV (peptide, UniProt Q99ML8 73-110, looked up) [Urocortin II (mouse)] the “cAMP … (EC50, nM)” value [1] was greater than 100 nM.

DDPPLSIDLTFHLLRTLLELARTQSQRERAEQNRIIFDSV (peptide, UniProt P55090 81-120, looked up) [Urocortin (rat)] was tested, and the “cAMP accumulation in primary rat anterior pituitary cells, EC50” value [2] was 2.3 nM.

Source: patent publication US20040143095A1 (RESEARCH DEVELOPMENT FOUNDATION, published 2004)
